In PMC2835468 (Matrix biology : journal of the International Society for …, 2009):

T1: ADAMTS5-2 (human ADAMTS-5 deletion mutant, C-terminal FLAG-tag) (human, UniProt Q9UNA0 262-874)
T1 sequence (looked up): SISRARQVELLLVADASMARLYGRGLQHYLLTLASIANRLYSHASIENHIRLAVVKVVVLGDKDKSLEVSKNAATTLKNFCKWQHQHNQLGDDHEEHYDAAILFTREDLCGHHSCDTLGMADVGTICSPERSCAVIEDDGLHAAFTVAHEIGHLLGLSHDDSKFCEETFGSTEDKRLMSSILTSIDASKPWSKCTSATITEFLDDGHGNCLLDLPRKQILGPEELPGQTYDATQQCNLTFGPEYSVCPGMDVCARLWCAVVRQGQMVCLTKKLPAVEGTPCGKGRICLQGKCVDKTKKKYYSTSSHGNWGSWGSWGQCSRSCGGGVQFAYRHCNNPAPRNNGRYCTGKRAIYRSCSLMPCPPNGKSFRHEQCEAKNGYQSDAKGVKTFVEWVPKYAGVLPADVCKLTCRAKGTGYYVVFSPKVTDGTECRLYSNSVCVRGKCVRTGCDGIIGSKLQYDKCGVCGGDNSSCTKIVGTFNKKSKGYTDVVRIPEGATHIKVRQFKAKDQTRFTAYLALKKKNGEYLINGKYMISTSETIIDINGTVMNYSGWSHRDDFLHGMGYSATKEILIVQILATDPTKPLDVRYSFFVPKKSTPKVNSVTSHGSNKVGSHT

T2: ADAMTS4-2 (human ADAMTS-4 deletion mutant, C-terminal FLAG-tag) (human, UniProt O75173 213-685)
T2 sequence (looked up): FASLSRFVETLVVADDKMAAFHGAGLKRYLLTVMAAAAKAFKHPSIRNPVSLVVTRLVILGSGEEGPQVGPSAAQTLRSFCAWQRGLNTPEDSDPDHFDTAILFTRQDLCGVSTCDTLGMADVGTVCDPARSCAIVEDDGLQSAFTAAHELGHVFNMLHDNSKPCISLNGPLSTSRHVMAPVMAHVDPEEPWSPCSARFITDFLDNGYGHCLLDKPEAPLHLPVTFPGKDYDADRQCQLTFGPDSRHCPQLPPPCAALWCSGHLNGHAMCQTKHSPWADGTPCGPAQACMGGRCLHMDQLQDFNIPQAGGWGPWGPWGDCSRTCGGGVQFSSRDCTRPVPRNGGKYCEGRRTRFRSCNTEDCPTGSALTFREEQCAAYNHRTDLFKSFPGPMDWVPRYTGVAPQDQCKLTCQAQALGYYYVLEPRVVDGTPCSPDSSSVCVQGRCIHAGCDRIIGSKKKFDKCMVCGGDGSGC

T3: Catalytic domain of human MMP-1 (MMP-1cat) (human, UniProt P03956 100-269)
T3 sequence (looked up): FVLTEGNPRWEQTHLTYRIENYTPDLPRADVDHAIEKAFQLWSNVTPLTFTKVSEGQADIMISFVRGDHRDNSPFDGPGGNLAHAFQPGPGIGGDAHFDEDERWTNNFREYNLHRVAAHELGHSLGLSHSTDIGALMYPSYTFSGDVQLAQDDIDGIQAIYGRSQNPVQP


Assays:
Experiment in all cases: enzyme inhibition kinetics
[1] = molecular target: T1, ADAMTS5-2 (human ADAMTS-5 deletion …)
[2] = molecular target: T2, ADAMTS4-2 (human ADAMTS-4 deletion …)
[3] = molecular target: T3, Catalytic domain of human MMP-1 …
[4] = molecular target: Catalytic domain of human MMP-3 (MMP-3cat) (human, UniProt P08254 100-272)
Catalytic domain of human MMP-3 (MMP-3cat), sequence (P08254 100-272): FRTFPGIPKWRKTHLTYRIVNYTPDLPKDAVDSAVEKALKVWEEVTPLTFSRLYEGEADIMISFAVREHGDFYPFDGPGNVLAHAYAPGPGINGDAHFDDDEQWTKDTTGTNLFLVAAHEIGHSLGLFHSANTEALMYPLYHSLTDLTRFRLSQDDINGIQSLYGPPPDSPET

Ki [1] | Ki [2] | Ki [3] | Ki [4] | Binder
0.32 nM | 0.79 nM | 0.8 nM | 11.1 nM | N-terminal domain of human TIMP-3 with C-terminal His-tag, expressed in Escherichia coli and folded in vitro (domain or fragment, UniProt P35625 24-144, looked up) CTCSPSHPQDAFCNSDIVIRAKVVGKKLVKEGPFGTLVYTIKQMKMYRGFTKMPHVQYIHTEASESLCGLKLEVNKYQYLLTGRVYDGKMYTGLCNFVERWDQLTLSQRKGLNYRYHLGCN
1.37 nM | 0.2 nM |  |  | Non-glycosylated full-length human TIMP-3, FLAG-tagged, from HEK293 cells treated with tunicamycin (natural protein, UniProt P35625 24-211, looked up) CTCSPSHPQDAFCNSDIVIRAKVVGKKLVKEGPFGTLVYTIKQMKMYRGFTKMPHVQYIHTEASESLCGLKLEVNKYQYLLTGRVYDGKMYTGLCNFVERWDQLTLSQRKGLNYRYHLGCNCKIKSCYYLPCFVTSKNECLWTDMLSNFGYPGYQSKHYACIRQKGGYCSWYRGWAPPDKSIINATDP
